Experimental data taken from patent US20170029841A1, “METHODS AND COMPOSITIONS FOR SELECTIVE REGULATION OF PROTEIN EXPRESSION” (priority 2015, published 2017).
Where two headings read alike, the source gives them in different places.

B1: SEQ ID NO: 6: mts-siRNA target element, nucleotide positions 370 to 477 of cDNA SEQ ID NO: 19 (nucleic acid)
DNA: TCGCCGAGAAGGGAGTAGTAGTATTACCTGATATCTATGCTAATTCAGGTGGTGTGGTCGTTAGCTACTTTAATTGAGTGGGTTCAGAACATTCAAGGTTTCATGTGG
modifications: chemistry not fully specified; the letters are possibly those of the target site
B2: SEQ ID NO: 10: recombinant mts-siRNA target element sequence (nucleic acid)
DNA: AGACGACGACCGTGCATGGTGATGAATCACAGACGACGAACACGCATGTCGCATCGCCGTCCTCTCACACCATAGAACTGCAAATGTCCG
modifications: expressed or natural sequence; target site or template, no part of the molecule
B3: SEQ ID NO: 4: mts-siRNA target element, nucleotide positions 477 to 697 of cDNA SEQ ID NO: 18 (nucleic acid)
DNA: ACGAGGGAATGTCATTGGTCGATGAGTTGGAGGCGTCAAATGCAGATAAAGCTACAACTTCCATGTGGAGGATGACTGCGACGTTGTGGCAGACTCATCCACTACAGTGAGAGTCTAGGAAAGCATGAAGCCGATTGTGGACATCGATGTCGGTGTCAAGGACTTATAGATGTCATGTTGGGAGAGCAACCATGGCACGATAGTTAAGGCGCAAGGGTATC
modifications: Zea mays
B4: SEQ ID NO: 1: mts-siRNA target element, 95% identity to nucleotide positions 1429 to 1628 of cDNA SEQ ID NO: 17 (nucleic acid)
DNA: AGACGACGACCGTGCATGGTGATGAATCACAGACGACGAACACGCATGTCGCATCGCCGTCCTCTTTGTATCACACAGCATCACCTTCTTCGCTCTACTACTCCCCCGAGCAATCACCGACCAATAACACCAACCATCAACCTCCCCCGTCGCCGCCGCCTTCACCGTCCTCCCCTCACACCATAGAACTGCAAATGTCCG
B5: SEQ ID NO: 11: recombinant mts-siRNA target element sequence (nucleic acid)
DNA: AGACGACGACCGTGCATGGTGATGAATCACAGACGACGAACACGCATGTCGCATCGCCGTCCTCTCACACCATAGAACTGCAAATGTCCGACAACAAGCACCTTCTTGCCTTGCAGTATTGGTGGTGACGACATCCTTGGTGTGCATGCACTGGTGAGTCACTGT
B6: SEQ ID NO: 12: recombinant mts-siRNA target element sequence (nucleic acid)
DNA: AGACGACGACCGTGCATGGTGATGAATCACAGACGACGAACACGCATGTCGCATCGCCGTCCTCTCACACCATAGAACTGCAAATGTCCGCTCTTCACCGTTGTAGTCGTTGATGGTATTGGTGGTGACGACATCCTTGGTGTGCATGCACTGGTGAGTCACTGTTGTAC
B7: SEQ ID NO: 5: mts-siRNA target element, nucleotide positions 239 to 433 of cDNA SEQ ID NO: 19 (nucleic acid)
DNA: TGGCTGCTTCTGTTGGCGTGAAAGCTCGAGTGCTCCTAAATGGTCGTCGTATTAGCTGATACGACATCTACCCGATGCAATAGATAATATTGTTTACACGCGTGAGTC
modifications: chemistry not fully specified; the letters are possibly those of the target site
B8: SEQ ID NO: 7: mts-siRNA target element, nucleotide positions 1357 to 1562 of cDNA SEQ ID NO: 20 (nucleic acid)
DNA: GGAACCGGTGACCAGCTGCACGACGATGAATCCTACAAGACGACCATGTAATACACAGTGTCGTCCTCTTCGTTCTACTACTCAACAGAGCAGTCGCCGACCAATAACGAATGGAGTATTATCTCTGTCCTTCACCTTACACCATATTCACACCATAGAACTGCAAATGTCCGAGGTACCAACTAACATCGGTACCTTTGGCATGA
modifications: Zea mays
B9: SEQ ID NO: 3: mts-siRNA target element, nucleotide positions 239 to 433 of cDNA SEQ ID NO: 18 (nucleic acid)
DNA: TCTAGCCACACGGTCACGTTTGGACGACCAATAATAGGCTTGCAACCCTTCAAATTGTGTCCATCAGCTTCCCAACGTGCATATCGCCATCCTCTGCTTCGTGTCCCATGTCACCACCCCCACTCTTCCTCTTTACATGCAATGCAAATAAAGCAGATCCAACGTGGATGAGGGTGAATCGGATGTTGAGGTGGG
modifications: Zea mays

Columns and labels:
transgenic maize plants = conditions: for AES90+8 (LSD = 10): average anther extrusion at S90+8, same glyphosate regimen; for CIPVT (LSD = 8.1): glyphosate 1.5 lbs ae/acre at V2, 0.75 at V8, 0.75 at V10, range over events; for Seed Yield bu/acre (LSD = 24.7): end of season; for Avg. plant height (inches) (LSD = 6.9): in vivo
[1] = system: transgenic maize R0 plants (double copy events); assay: R0 plant greenhouse glyphosate spray: vegetative tolerance and induced male sterility; assay type: in vivo; conditions: for % Vegetative Tolerant / % Vegetative Tolerance: glyphosate 0.75 lb ae/acre at V5 then V8; for % Vegetative Tolerant: <=10% injury 7 days after V5 spray
Protocol: Transformation vectors containing the recombinant DNA constructs were used with an Agrobacterium-based transformation method and maize immature embryos and techniques known in the art. Leaf samples of R0 plants were collected and molecular analysis was conducted to select transgenic plants containing a single copy (one insertion) or a double copy (two independent insertions) of the recombinant DNA construct and no presence of vector backbone. Single copy events were not sprayed with glyphosate and were selfed and advanced for R1 seed collection, while double copy events were used for R0 glyphosate spray to assess vegetative tolerance and induced male sterility. Transgenic plants that were not sprayed with glyphosate had normal anthesis, normal pollen shedding, and normal pollen development as determined by Alexandar staining and microscopic observation.
Double copy R0 events were used in testing to approximate a single copy homozygous event. Plants were sprayed with glyphosate at two different growth stages to determine if the presence of the mts-siRNA target element in the recombinant DNA construct provided vegetative glyphosate tolerance and glyphosate-induced tassel sterility. The plants were sprayed in a greenhouse with 1× glyphosate (0.75 lb ae/acre) applied at the V5 stage followed by 1× glyphosate (0.75 lb ae/acre) applied at the V8 stage. Seven days after the V5 stage glyphosate application, plants were scored for vegetative injury with scores of ≦10% injury considered as showing vegetative glyphosate tolerance (% Vegetative Tolerant). Male sterility was measured in two ways. […] Anthers were then collected and dissected to microscopically observe pollen development. Anthers for each event were tested for no viable pollen grains produced as detected by Alexandar staining under microscopic observation and scored as not producing any viable pollen (% No Pollen). In plants not sprayed with glyphosate, tassel development, anther extrusion, and pollen development were normal.
The mts-siRNA target elements were tested in multiple transformation vector configurations. Each transformation vector was used to produce multiple R0 plants with each R0 plant representing a unique transgenic event made using the same transformation vector. Data for three different transformation vector configurations are provided as Tables 11 and 12.

[2] = vector configuration A, no anther extrusion up to S90+12 after V8 glyphosate
[3] = vector configuration A, no viable pollen by Alexandar staining

Row | Molecule | CIPVT (LSD = 8.1) (transgenic maize plants) | % Vegetative Tolerant ([1]; vector configuration A) | % Completely Male-sterile [1, 2] | % No Pollen [1, 3] | % Completely Male-sterile ([1]; vector configuration B) | % No Pollen ([1]; vector configuration B) | % Vegetative Tolerance ([1]; vector configuration B) | % Completely Male-sterile ([1]; vector configuration C) | % No Pollen ([1]; vector configuration C) | % Vegetative Tolerance ([1]; vector configuration C) | Seed Yield bu/acre (LSD = 24.7) (transgenic maize plants) | other results
1 | B1 | No significant difference | 90% | 82% | 0% | – | – | – | – | – | – | – | AES90+8 (LSD = 10) (transgenic maize plants; listed as 6): 25%; CIPVT (LSD = 8.1) (transgenic maize plants; listed as 6): 3.75%
2 | B2 | – | – | – | – | 55% | 22% | 90% | 100% | 0% | 83% | – | –
3 | B3 | No significant difference | 86% | 7% | 0% | – | – | – | – | – | – | 70-80 bu/acre | AES90+8 (LSD = 10) (transgenic maize plants; listed as 4): 16.25-18.75%; CIPVT (LSD = 8.1) (transgenic maize plants; listed as 4): 1.25-3.75%
4 | B4 | No significant difference | – | – | – | 100% | 100% | 67% | 100% | 60% | 38% | no significant decrease | AES90+8 (LSD = 10) (transgenic maize plants): 0-2.75%; AES90+8 (LSD = 10) (transgenic maize plants; listed as 1): 0-2.75%; Seed Yield bu/acre (LSD = 24.7) (transgenic maize plants; listed as 1): 97-99 bu/acre; CIPVT (LSD = 8.1) (transgenic maize plants; listed as 1): 2.5-6.25%; Avg. plant height (inches) (LSD = 6.9) (transgenic maize plants): No significant difference; Avg. plant height (inches) (LSD = 6.9) (transgenic maize plants; listed as 1): 84.75 inches
5 | B5 | – | – | – | – | 50% | 0% | 100% | 80% | 0% | 55% | – | –
6 | B6 | – | – | – | – | 50% | 20% | 100% | 23% | 0% | 87% | – | –
7 | B7 | No significant difference | – | – | 0% | – | – | – | – | – | – | – | AES90+8 (LSD = 10) (transgenic maize plants; listed as 5): 10%-20%; CIPVT (LSD = 8.1) (transgenic maize plants; listed as 5): 5%; % Vegetative Tolerant ([1]; vector configuration A, listed as 5): 90%; % Completely Male-sterile ([1]; vector configuration A, no anther extrusion up to S90+12 after V8 glyphosate, listed as 5): 50%
8 | B8 | No significant difference | – | – | 44% | – | – | – | – | – | – | no significant decrease | AES90+8 (LSD = 10) (transgenic maize plants): 0-1.5%; AES90+8 (LSD = 10) (transgenic maize plants; listed as 7): 0-1.5%; Seed Yield bu/acre (LSD = 24.7) (transgenic maize plants; listed as 7): 100-110 bu/acre; CIPVT (LSD = 8.1) (transgenic maize plants; listed as 7): 3.75-5%; Avg. plant height (inches) (LSD = 6.9) (transgenic maize plants): No significant difference; Avg. plant height (inches) (LSD = 6.9) (transgenic maize plants; listed as 7): 79.8 inches; % Vegetative Tolerant ([1]; vector configuration A, listed as 7): 88%; % Completely Male-sterile ([1]; vector configuration A, no anther extrusion up to S90+12 after V8 glyphosate, listed as 7): 100%
9 | B9 | – | 90% | 10% | 0% | – | – | – | – | – | – | – | –
